The values below come from patent publication US20220213181A1 (Novartis, published 2022).

Numbering of substitutions follows the chain as printed.

Experiment [1] deals with T1, Human ANGPTL3(17-460)-FLAG-His-Avi (human, UniProt Q9Y5C1 17-460, biotin on the C-terminal Avi tag (BirA)).
T1 construct: also called full length human ANGPTL3; hANGPTL3
T1 sequence: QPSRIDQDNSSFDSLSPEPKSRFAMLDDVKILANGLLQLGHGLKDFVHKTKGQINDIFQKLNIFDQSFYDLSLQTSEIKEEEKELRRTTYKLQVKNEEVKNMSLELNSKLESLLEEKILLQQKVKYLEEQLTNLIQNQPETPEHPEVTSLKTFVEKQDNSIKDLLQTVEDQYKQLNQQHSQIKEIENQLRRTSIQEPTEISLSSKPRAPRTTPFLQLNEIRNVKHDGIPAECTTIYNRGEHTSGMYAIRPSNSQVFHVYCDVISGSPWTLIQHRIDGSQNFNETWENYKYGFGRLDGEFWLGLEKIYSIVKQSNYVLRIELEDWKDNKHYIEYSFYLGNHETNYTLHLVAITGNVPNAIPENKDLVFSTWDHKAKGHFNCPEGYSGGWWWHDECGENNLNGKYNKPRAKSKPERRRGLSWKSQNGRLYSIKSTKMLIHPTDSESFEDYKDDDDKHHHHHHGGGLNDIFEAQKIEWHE
Put plainly: direct ELISA on MSD streptavidin plate, biotinylated antigen immobilized at 1 nM, antibody at 1 nM, Sulfo-tagged anti-human IgG detection. As for the experimental part:
Direct ELISA assays were conducted to characterize antibody binding specificity of selected antibodies of the invention. The assay was performed as follows. A 384-well streptavidin-coated Meso Scale Discovery (MSD) plate was blocked by incubating the plate with 50 μL Blocking Buffer (PBS, pH 7.4, 5% w/v bovine serum albumin) per well at 22° C. for 1 hour with constant shaking (600 rpm). The blocked MSD plate was then washed 3 times with Wash Buffer (PBS, pH 7.4 and 0.05% v/v Tween-20) using a plate washer (BioTek). Following washing, biotinylated human ANGPTL4 proteins diluted in Assay Buffer (PBS, pH 7.4 without CaCl₂ or MgCl₂, 0.5% w/v fatty acid-free bovine serum albumin and 0.02% v/v Tween-20) were immobilized on the surface by incubation at 1 nM concentration (15 μL per well) at 22° C. for one hour: full length human ANGPTL4 (hANGPTL4), human ANGPTL4 coiled-coil domain (hANGPTL4-CCD) and full length human ANGPTL3 (hANGPTL3). The plate was then washed 3 times as described earlier. Antibody diluted to 1 nM concentration in Assay Buffer was then applied to the MSD plate (15 μL per well), and the plate was incubated for 1 hour at 22° C. with constant shaking (600 rpm). Bound antibodies were detected by adding 15 μL per well of a 1:500 dilution of Sulfo-tagged goat anti-human IgG. The plate was then incubated for one hour with constant shaking (600 rpm). The plate was washed 3 times, and then 15 μL/well of 1× MSD read buffer T was added and the plate was developed using a Sector Imager 6000 (Meso Scale Discovery). The data were transferred to Microsoft Excel for analysis and plotted using GraphPad Prism v6. […] An ANGPTL3-specific reference antibody was used as a positive control for the ANGPTL3 binding assay (FIG. 2).
A general note: In an ELISA, binding on a coated surface is turned into a signal by an enzyme label.

The target in experiment [2] is T2, Cynomolgus monkey ANGPTL4(26-406)-FLAG-His6-Avi (cynomolgus monkey, biotin on the C-terminal Avi tag (BirA) where the protein is immobilised).
T2 construct: also called Cyno ANGPTL4 (26-406)
T2 chain: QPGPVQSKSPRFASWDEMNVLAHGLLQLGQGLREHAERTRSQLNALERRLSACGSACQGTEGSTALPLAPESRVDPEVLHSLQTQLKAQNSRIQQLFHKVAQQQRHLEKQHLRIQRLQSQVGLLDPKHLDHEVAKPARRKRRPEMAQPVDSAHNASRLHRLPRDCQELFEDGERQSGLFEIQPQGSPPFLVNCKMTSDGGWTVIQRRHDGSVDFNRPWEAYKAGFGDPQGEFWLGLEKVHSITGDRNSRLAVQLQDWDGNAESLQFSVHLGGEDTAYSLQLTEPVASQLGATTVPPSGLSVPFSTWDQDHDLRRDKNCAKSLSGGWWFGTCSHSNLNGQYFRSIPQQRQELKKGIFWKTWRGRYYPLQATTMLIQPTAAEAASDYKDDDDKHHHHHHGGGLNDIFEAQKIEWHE
The experiment in a line: SET (solution equilibrium titration), MSD detection, IgG. As for the experimental part:
SET assays were performed as follows. In a 96-well polypropylene plate, a constant concentration of ANGPTL4 antibody (10 pM) was mixed with different concentrations of non-biotinylated human, cyno, mouse, or rat full-length ANPGLT4 protein, or human ANGPTL4 N-terminal domain protein (5-fold serial dilution ranging from 0.01 pM to 100 nM) in SET buffer (PBS, pH 7.4 without CaCl₂) or MgCl₂, 0.5% w/v bovine serum albumin (fatty acid free) and 0.02% v/v Tween-20). The final reaction volume was 80 μL. The plate was sealed using an adhesive film and incubated at 22° C. for 14 hours with constant shaking (300 rpm). During the same period of time, a 384-well streptavidin-coated Meso Scale Discovery (MSD) plate was blocked by incubating the plate with 50 μL blocking buffer (PBS, pH 7.4, 5% w/v bovine serum albumin) per well at 4° C. The blocked MSD plate was washed 3 times with wash buffer (PBS, pH 7.4 and 0.05% v/v Tween-20) using a plate washer (BioTek). Biotinylated ANGPTL4 (full-length human, cyno, mouse, or rat ANGPTL4, or human ANGPTL4 N-terminal domain) protein (1 nM, 15 μL per well) was immobilized on the surface of the streptavidin-coated MSD plate by incubation at 22° C. for one hour with constant shaking (600 rpm). The plate was then washed 3 times as described earlier.
The equilibrium binding reactions (15 μL per well) were applied to the MSD plate with immobilized ANGPTL4 and incubated for 20 min at 22° C. The unbound material was removed by washing the plate 3 times with wash buffer, and the captured antibody was detected by adding 15 μL per well of a 1:500 dilution of Sulfo-tagged goat anti-human IgG (Meso Scale Discovery). The plate was then incubated for one hour with constant shaking (600 rpm). The plate was washed 3 times, and then 15 μL/well of 1× MSD read buffer T was added and the plate was developed using a Sector Imager 6000 (Meso Scale Discovery). The data were transferred to Microsoft Excel for analysis and plotted using GraphPad Prism v6. The KD values were determined by fitting the data to the following equation: […]
where Bₘₐₓ is the signal when no ANGPTL4 protein is present in solution, CAb is the constant concentration of ANGPTL4 antibody in solution, CAg is the concentration of ANGPTL4 in solution, and KD is the equilibrium dissociation constant.

B1: NEG310 (antibody, human IgG1, kappa, V domains shown)
VH: QVQLVQSGAEVKKPGASVKVSCKASGYTFTSYTMHWVRQAPGQGLEWMGYINPSSGYTKYNQKFQGRVTMTADKSTSTAYMELSSLRSEDTAVYYCAEGWLLLAMDYWGQGTLVTVSS
VL: EAVVTQSPATLSLSPGERATLSCRSSTGAVTTSNYAIWVQEKPGQAPRGLIGGTNNRAPGIPARFSGSLSGDDATLTISSLQPEDFAVYFCALWYSDHWVFGQGTKVEIKR
notes: humanized, hIgG1/kappa, parental antibody 17B1
A word on the Kd: it is a measure of binding affinity in units of concentration. On to B1, for which the binding result in experiment [1] is reported as “no binding (tested: 1 nM)”. Also, binding in experiment [2] was characterised by a dissociation constant (Kd) of 0.022 nM.

B2: NEG315 (antibody, human IgG1, kappa, V domains shown)
VH: QVQLVQSGAEVKKPGASVKVSCKASGYTFTNYWITWVRQAPGQGLEWMGDFYPGGGNTNYNAKLQGRVTLTVDTSTSTAYMELRSLRSDDTAVYYCARSPPQVAPFDYWGQGTLVTVSS
VL: DIQMTQSPSSLSASVGDRVTITCQASEYIYNWLGWYQQKPGKAPKLLISGASGLETGVPSRFSGSGSGKDYTFTISSLQPEDIATYYCQQYWSTPWTFGQGTKLEIKR
notes: humanized, hIgG1/kappa, parental antibody 37P1
On to B2, for which the binding result in experiment [1] is listed as “no binding (tested: 1 nM)”. Also, the affinity in experiment [2], expressed as Kd, was 0.021 nM.

B3: NEG313 (antibody, human IgG1, kappa, V domains shown)
VH: B2 VH with T30N, N57S
VL: B2 VL with E27D, N31H
notes: as for B2
Turning to B3, the binding result in experiment [1] is on record as “no binding (tested: 1 nM)”. In experiment [2], this molecule had an equilibrium dissociation constant (Kd) of 0.015 nM.

B4: NEG319 (antibody, human IgG1, kappa, V domains shown)
VH: B2 VH with N31S, Y32F, F51I, G56A, A62E, A104G
VL: B2 VL with Y30I, G34A, S52T, T94I
notes: humanized, hIgG1/kappa, parental antibody 14P18
For the molecule B4, the binding result in experiment [1] is recorded as “no binding (tested: 1 nM)”. The molecule also returned a Kd in experiment [2] of 0.008 nM.

B5: NEG318 (antibody, human IgG1, kappa, V domains shown)
VH: B2 VH with N31S, Y32F, F51I, G56A, N57T, A62E, A104G
VL: B2 VL with E27D, N31H, G34A, G53S, T94I
notes: as for B4
Turning to B5, in experiment [1], the binding result is given as “no binding (tested: 1 nM)”. In experiment [2], this molecule had a Kd of 0.017 nM.

B6: NEG276 (antibody, human IgG1, kappa)
heavy: not shown
light: EIVMTQSPATLSVSPGERATLSCKASQDIGSNLNWLQQKPGQAPRRLIYAVSNRGPGIPARFSGSRSGSEYTLTISSLQSEDFAVYYCLQYASSPWTFGQGTKVEIKRTVAAPSVFIFPPSDEQLKSGTASVVCLLNNFYPREAKVQWKVDNALQSGNSQESVTEQDSKDSTYSLSSTLTLSKADYEKHKVYACEVTHQGLSSPVTKSFNRGEC
notes: humanized, hIgG1/kappa, parental antibody 19C16
Consider B6, for which the binding result in experiment [1] is reported as “no binding (tested: 1 nM)”. The molecule further returned a Kd in experiment [2] of 0.014 nM.

B7: NEG276-LALA (antibody, human IgG1, kappa, L234A L235A)
heavy: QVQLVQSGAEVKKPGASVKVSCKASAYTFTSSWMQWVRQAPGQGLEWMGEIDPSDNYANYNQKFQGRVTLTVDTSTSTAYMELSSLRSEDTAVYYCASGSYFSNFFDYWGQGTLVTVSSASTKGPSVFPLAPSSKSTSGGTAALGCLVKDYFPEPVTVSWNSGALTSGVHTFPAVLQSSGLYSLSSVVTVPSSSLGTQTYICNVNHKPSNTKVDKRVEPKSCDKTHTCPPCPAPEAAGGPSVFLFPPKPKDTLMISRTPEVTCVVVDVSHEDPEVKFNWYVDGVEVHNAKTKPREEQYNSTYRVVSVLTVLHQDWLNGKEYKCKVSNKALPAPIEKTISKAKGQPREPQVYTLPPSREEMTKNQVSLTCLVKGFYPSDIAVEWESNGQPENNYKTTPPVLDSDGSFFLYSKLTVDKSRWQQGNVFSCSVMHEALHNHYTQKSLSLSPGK
light: B6 light
Consider B7, for which, in experiment [2], binding was put at a Kd of 0.007 nM.

B8: NEG278 (antibody, human IgG1, kappa, V domains shown)
VH: QVQLVQSGAEVKKPGASVKVSCKASAYTFTSSWMQWVRQAPGQGLEWMGEIDPSDNYANYNQKFQGRVTLTVDTSTSTAYMELSSLRSEDTAVYYCASGSYFSNFFDYWGQGTLVTVSS
VL: EIVMTQSPATLSVSPGERATLSCKASQDIGSNLNWLQQKPGQAPRRLIYAASVREPGIPARFSGSRSGSEYTLTISSLQSEDFAVYYCLQYASSPWTFGQGTKVEIKR
notes: as for B6
For the molecule B8, the binding result in experiment [1] was “no binding (tested: 1 nM)”. Besides, the Kd in experiment [2] was determined as 0.02 nM.
